T1: human CD131 (human, UniProt P32927 17-897)
T1 sequence: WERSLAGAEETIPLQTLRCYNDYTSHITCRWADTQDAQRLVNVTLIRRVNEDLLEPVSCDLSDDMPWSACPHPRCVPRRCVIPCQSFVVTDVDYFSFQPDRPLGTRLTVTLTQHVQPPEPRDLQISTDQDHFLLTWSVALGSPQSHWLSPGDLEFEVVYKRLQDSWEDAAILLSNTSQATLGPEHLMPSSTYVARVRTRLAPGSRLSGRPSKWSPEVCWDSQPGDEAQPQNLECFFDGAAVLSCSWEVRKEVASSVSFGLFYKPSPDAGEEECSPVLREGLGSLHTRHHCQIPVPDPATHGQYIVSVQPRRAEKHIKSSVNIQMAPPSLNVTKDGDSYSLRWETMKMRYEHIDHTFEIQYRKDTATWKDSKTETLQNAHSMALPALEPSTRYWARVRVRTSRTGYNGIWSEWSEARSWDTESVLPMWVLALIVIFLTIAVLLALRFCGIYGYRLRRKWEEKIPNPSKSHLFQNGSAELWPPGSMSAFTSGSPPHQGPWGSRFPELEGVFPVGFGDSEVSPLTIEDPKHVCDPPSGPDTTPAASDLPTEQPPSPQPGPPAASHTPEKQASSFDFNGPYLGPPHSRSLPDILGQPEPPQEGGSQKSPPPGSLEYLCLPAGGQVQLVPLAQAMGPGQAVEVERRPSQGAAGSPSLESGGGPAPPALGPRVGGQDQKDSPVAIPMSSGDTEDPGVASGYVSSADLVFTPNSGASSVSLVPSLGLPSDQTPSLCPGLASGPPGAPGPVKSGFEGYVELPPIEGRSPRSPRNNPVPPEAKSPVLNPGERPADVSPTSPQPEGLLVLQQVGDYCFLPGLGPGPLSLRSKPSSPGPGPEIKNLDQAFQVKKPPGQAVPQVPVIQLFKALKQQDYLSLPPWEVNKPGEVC

B1: 9A2-VR39.174 (antibody, V domains shown)
VH: EVQLLESGGGLVQPGGSLRLSCAASGFTFSHYHMLWVRQAPGKGLEWVSSINGRGRVTYYARDHKKRFTISRDNSKNTLYLQMNSLRAEDTAVYYCARFYDSFFDIWGQGTMVTVSS
VL: DIQMTQSPSSVSASVGDRVTITCRASQGISSWLAWYQQKPGKAPKLLIYAASSLQSGVPSRFSGSGSGTDFTLTISSLQPEDFATYYCQQANSFPITFGQGTRLEIKR
B2: 9A2-VR24.19 (antibody, V domains shown)
VH: EVQLLESGGGLVQPGGSLRLSCAASGFTFPWYRVHWVRQAPGKGLEWVSSIHTQSKWTYYADSVKGRFTISRDNSKNTLYLQMNSLRAEDTAVYYCARFYDSFFDIWGQGTMVTVSS
VL: DIQMTQSPSSVSASVGDRVTITCRASQGISSWLAWYQQKPGKAPKLLIYAASSLQSGVPSRFSGSGSGTDFTLTISSLQPEDFATYYCQQANSFPITFGQGTRLEIKR
B3: 9A2-VR24.84 (antibody, V domains shown)
VH: EVQLLESGGGLVQPGGSLRLSCAASGFTFPWYRVHWVRQAPGKGLEWVSSIHTHRPWTYYADSVKGRFTISRDNSKNTLYLQMNSLRAEDTAVYYCARFYDSFFDIWGQGTMVTVSS
VL: DIQMTQSPSSVSASVGDRVTITCRASQGISSWLAWYQQKPGKAPKLLIYAASSLQSGVPSRFSGSGSGTDFTLTISSLQPEDFATYYCQQANSFPITFGQGTRLEIKR
B4: 9A2-VR24.81 (antibody, V domains shown)
VH: EVQLLESGGGLVQPGGSLRLSCAASGFTFPWYRVHWVRQAPGKGLEWVSSIHTHRNYTYYADSVKGRFTISRDNSKNTLYLQMNSLRAEDTAVYYCARFYDSFFDIWGQGTMVTVSS
VL: DIQMTQSPSSVSASVGDRVTITCRASQGISSWLAWYQQKPGKAPKLLIYAASSLQSGVPSRFSGSGSGTDFTLTISSLQPEDFATYYCQQANSFPITFGQGTRLEIKR
B5: 9A2-VR24.10 (antibody, V domains shown)
VH: EVQLLESGGGLVQPGGSLRLSCAASGFTFPWYRVHWVRQAPGKGLEWVSSIHTGSQWTYYADSVKGRFTISRDNSKNTLYLQMNSLRAEDTAVYYCARFYDSFFDIWGQGTMVTVSS
VL: DIQMTQSPSSVSASVGDRVTITCRASQGISSWLAWYQQKPGKAPKLLIYAASSLQSGVPSRFSGSGSGTDFTLTISSLQPEDFATYYCQQANSFPITFGQGTRLEIKR
B6: 9A2-VR24.87 (antibody, V domains shown)
VH: EVQLLESGGGLVQPGGSLRLSCAASGFTFPWYRVHWVRQAPGKGLEWVSSIHTHSDWTYYADSVKGRFTISRDNSKNTLYLQMNSLRAEDTAVYYCARFYDSFFDIWGQGTMVTVSS
VL: DIQMTQSPSSVSASVGDRVTITCRASQGISSWLAWYQQKPGKAPKLLIYAASSLQSGVPSRFSGSGSGTDFTLTISSLQPEDFATYYCQQANSFPITFGQGTRLEIKR
B7: 9A2-VR24.76 (antibody, V domains shown)
VH: EVQLLESGGGLVQPGGSLRLSCAASGFTFPWYRVHWVRQAPGKGLEWVSSIQTHGVWTYYADSVKGRFTISRDNSKNTLYLQMNSLRAEDTAVYYCARFYDSFFDIWGQGTMVTVSS
VL: DIQMTQSPSSVSASVGDRVTITCRASQGISSWLAWYQQKPGKAPKLLIYAASSLQSGVPSRFSGSGSGTDFTLTISSLQPEDFATYYCQQANSFPITFGQGTRLEIKR
B8: 9A2-VR24.82 (antibody, V domains shown)
VH: EVQLLESGGGLVQPGGSLRLSCAASGFTFPWYRVHWVRQAPGKGLEWVSSIKHGGRYTYYADSVKGRFTISRDNSKNTLYLQMNSLRAEDTAVYYCARFYDSFFDIWGQGTMVTVSS
VL: DIQMTQSPSSVSASVGDRVTITCRASQGISSWLAWYQQKPGKAPKLLIYAASSLQSGVPSRFSGSGSGTDFTLTISSLQPEDFATYYCQQANSFPITFGQGTRLEIKR
B9: 9A2-VR24.91 (antibody, V domains shown)
VH: EVQLLESGGGLVQPGGSLRLSCAASGFTFPWYRVHWVRQAPGKGLEWVSSIHTHRQVTYYADSVKGRFTISRDNSKNTLYLQMNSLRAEDTAVYYCARFYDSFFDIWGQGTMVTVSS
VL: DIQMTQSPSSVSASVGDRVTITCRASQGISSWLAWYQQKPGKAPKLLIYAASSLQSGVPSRFSGSGSGTDFTLTISSLQPEDFATYYCQQANSFPITFGQGTRLEIKR
B10: 9A2-VR24.78 (antibody, V domains shown)
VH: EVQLLESGGGLVQPGGSLRLSCAASGFTFPWYRVHWVRQAPGKGLEWVSSIHTHRNYTYYADSVKGRFTISRDNSKNTLYLQMNSLRAEDTAVYYCARFYDSFFDIWGQGTMVTVSS
VL: DIQMTQSPSSVSASVGDRVTITCRASQGISSWLAWYQQKPGKAPKLLIYAASSLQSGVPSRFSGSGSGTDFTLTISSLQPEDFATYYCQQANSFPITFGQGTRLEIKR
B11: 9A2-VR24.24 (antibody, V domains shown)
VH: EVQLLESGGGLVQPGGSLRLSCAASGFTFPWYRVHWVRQAPGKGLEWVSSIRTDGTWTYYADSVKGRFTISRDNSKNTLYLQMNSLRAEDTAVYYCARFYDSFFDIWGQGTMVTVSS
VL: DIQMTQSPSSVSASVGDRVTITCRASQGISSWLAWYQQKPGKAPKLLIYAASSLQSGVPSRFSGSGSGTDFTLTISSLQPEDFATYYCQQANSFPITFGQGTRLEIKR
B12: 9A2-VR39.177 (antibody, V domains shown)
VH: EVQLLESGGGLVQPGGSLRLSCAASGFTFSHYHMLWVRQAPGKGLEWVSSINGRGRVTYYALEYKKRFTISRDNSKNTLYLQMNSLRAEDTAVYYCARFYDSFFDIWGQGTMVTVSS
VL: DIQMTQSPSSVSASVGDRVTITCRASQGISSWLAWYQQKPGKAPKLLIYAASSLQSGVPSRFSGSGSGTDFTLTISSLQPEDFATYYCQQANSFPITFGQGTRLEIKR
B13: 9A2-VR24.12 (antibody, V domains shown)
VH: EVQLLESGGGLVQPGGSLRLSCAASGFTFPWYRVHWVRQAPGKGLEWVSSIHTHYQYTYYADSVKGRFTISRDNSKNTLYLQMNSLRAEDTAVYYCARFYDSFFDIWGQGTMVTVSS
VL: DIQMTQSPSSVSASVGDRVTITCRASQGISSWLAWYQQKPGKAPKLLIYAASSLQSGVPSRFSGSGSGTDFTLTISSLQPEDFATYYCQQANSFPITFGQGTRLEIKR
B14: 9A2-VR24.07 (antibody, V domains shown)
VH: EVQLLESGGGLVQPGGSLRLSCAASGFTFPWYRVHWVRQAPGKGLEWVSSIHTHRNSTYYADSVKGRFTISRDNSKNTLYLQMNSLRAEDTAVYYCARFYDSFFDIWGQGTMVTVSS
VL: DIQMTQSPSSVSASVGDRVTITCRASQGISSWLAWYQQKPGKAPKLLIYAASSLQSGVPSRFSGSGSGTDFTLTISSLQPEDFATYYCQQANSFPITFGQGTRLEIKR
B15: 9A2-VR24.04 (antibody, V domains shown)
VH: EVQLLESGGGLVQPGGSLRLSCAASGFTFPWYRVHWVRQAPGKGLEWVSSIHTHRHITYYADSVKGRFTISRDNSKNTLYLQMNSLRAEDTAVYYCARFYDSFFDIWGQGTMVTVSS
VL: DIQMTQSPSSVSASVGDRVTITCRASQGISSWLAWYQQKPGKAPKLLIYAASSLQSGVPSRFSGSGSGTDFTLTISSLQPEDFATYYCQQANSFPITFGQGTRLEIKR

molecular target: T1, human CD131; test: cell-based or functional assay

Q: How did the “IC50 GM-CSF, TF-1 proliferation” value turn out when B1 was run?
A: Its value is 0.64 nM.

Q: Which “IC50 GM-CSF, TF-1 proliferation” value does the source give for B2 here?
A: Its value is 0.98 nM.

Q: B3 was tested. Which “IC50 GM-CSF, TF-1 proliferation” value did it give?
A: Its value is 0.21 nM.

Q: For B4, which “IC50 GM-CSF, TF-1 proliferation” value is on record?
A: Its value is 0.48 nM.

Q: With B5 as the binder, how does the “IC50 GM-CSF, TF-1 proliferation” value read?
A: Its value is 9.52 nM.

Q: For B6, which “IC50 GM-CSF, TF-1 proliferation” value is on record?
A: Its value is 2.37 nM.

Q: With B7 as the binder, how does the “IC50 GM-CSF, TF-1 proliferation” value read?
A: Its value is 12.4 nM.

Q: With B8 as the binder, how does the “IC50 GM-CSF, TF-1 proliferation” value read?
A: The value was 3.99 nM.

Q: How did the “IC50 GM-CSF, TF-1 proliferation” value turn out when B9 was run?
A: The value was 0.5 nM.

Q: How did the “IC50 GM-CSF, TF-1 proliferation” value turn out when B10 was run?
A: Its value is 0.65 nM.

Q: How did the “IC50 GM-CSF, TF-1 proliferation” value turn out when B11 was run?
A: Its value is 1.09 nM.

Q: How did the “IC50 GM-CSF, TF-1 proliferation” value turn out when B12 was run?
A: Its value is 0.52 nM.

Q: For B13, which “IC50 GM-CSF, TF-1 proliferation” value is on record?
A: The value was 0.93 nM.

Q: B14 was tested. Which “IC50 GM-CSF, TF-1 proliferation” value did it give?
A: Its value is 1.17 nM.

Q: Which “IC50 GM-CSF, TF-1 proliferation” value does the source give for B15 here?
A: Its value is 0.7 nM.

Source: patent publication US20190062438A1 (CSL, published 2019)
